# Source: paper PMC9576728
# How the values were obtained:
# FLAG-POU2F3 = FLAG-POU2F3 (UniProt Q9UKI9); experiment: co-immunoprecipitation (IP:FLAG) and western blot, quantified; details: HEK293T cells, IP:FLAG lanes, parent: 1
# POU2F3 = POU2F3 (UniProt Q9UKI9); experiment: co-immunoprecipitation (IP:HA) and western blot, quantified; details: HEK293T cells, IP:HA lanes, parent: 1
substance,measurement,setting,value
HA-COLCA2 (WT) (from UniProt A8K830) VKELL>DAAPP (V>D; K>A; E>A; L>P; L>P; residue numbers not printed),ratio to parent,FLAG-POU2F3; normalised COLCA2/POU2F3 ratio,0.52
same,ratio to parent,"FLAG-POU2F3; raw HA band (V5-POU2F3 control lane 0; FLAG bait band WT 1, DAAPP 1.07, V5 control 0.09)",0.56
same,ratio to parent,POU2F3; normalised POU2F3/COLCA2 ratio,0.37
same,ratio to parent,"POU2F3; raw POU2F3 band (untagged control lane 0.29; HA bait band WT 1, DAAPP 1.44)",0.53
